This is an account of results in patent EP4772538A1.

This assay has as its target CD3D-CD3E-mFc (human; mouse). Briefly: SPR, Biacore T200, method of Section 3.1; affinity for CD3D-CD3E-mFc.

“TCR/CD3 bispecific molecule IMC-C103C (control bifunctional molecule)” came in with a Kd of 1.08 nM, a koff of 0.00028 s⁻¹ and an association rate constant (kon) of 258000 M⁻¹ s⁻¹.
